The results in this text go back to publication PMC3897949.

The target of the assay is PCAF HAT domain (amino acids 493-658), His-tagged (human), Q92831. Description: SEC-MALS; protein at 2, 6 and 20 mg/ml on a size exclusion column (WTC-010S5); 50 mM phosphate buffer pH 7.0, 150 mM NaCl, 35°C; monomer to dimer. Particulars: remark: other sources report otherwise.

B1: PCAF HAT domain (amino acids 493-658), His-tagged, Q92831 493-658 (domain or fragment)
chain: VIEFHVVGNSLNQKPNKKILMWLVGLQNVFSHQLPRMPKEYITRLVFDPKHKTLALIKDGRVIGGICFRMFPSQGFTEIVFCAVTSNEQVKGYGTHLMNHLKEYHIKHDILNFLTYADEYAIGYFKKQGFSKEIKIPKTKYVGYIKDYEGATLMGCELNPRIPYTE
B1: the stoichiometry N was found to be 2.
